Holding throughout (experiment): AUC
In data set [1] the target is 22S protein of the mitotic apparatus, Arbacia punctulata (Arbacia punctulata).
For data set [2] the target is unchanged. The source holds these as a separate data set.
For data set [3] the target is unchanged. The source holds these as a separate data set.
Data set [4] has the same target. The source holds these as a separate data set.
Data set [5] has the same target. This is another data set of the same source.
Data set [6] has the same target. The source holds these as a separate data set.
The target of data set [7] is 22S protein of the mitotic apparatus, Strongylocentrotus droebachiensis (Strongylocentrotus droebachiensis).
For data set [8] the target is unchanged. The source holds these as a separate data set.
Data set [9] shares this target. This is another data set of the same source.
Data set [10] concerns the molecule itself.
Data set [11] concerns the molecule itself. This is another data set of the same source.

This is an account of results in publication PMC2107256 (The Journal of Cell Biology, 1967).

“And” between values parts separate entries of the source, which are not always exact repeats. Identical values can stand only once. Like-named read-outs stand apart in the source and are kept apart here.

As for “22S protein of the mitotic apparatus, Arbacia punctulata (natural protein)”, the stoichiometry N (in general, the number of molecules, sites or subunits per partner or assembly) was 2 in data set [1]; 2 in [2]; 4 and 2 and 6 in [3]; 2 in data set [4]; 8 in data set [5]; 6 and 4 and 2 in data set [6].
Consider “22S protein of the mitotic apparatus, Strongylocentrotus droebachiensis (natural protein)”, for which the stoichiometry N in data set [7] came to 2; in data set [8], 2; in data set [9], 8.

B1: 22S protein of the mitotic apparatus, Strongylocentrotus purpuratus (natural protein)
chain: VPSGSLGSRPGTCPPQPSDQVMIEATRCSYVYGLTWDWNCNSQGQENYKCCQYENDIRICVPPIPADVDEEVGVEQPSQSVDQVRQAIQKTQDFIRKVGLYPAPDQRRRTTPTPDTVRWCVSSRCQMTKCQRMVSEFTYSPNMVPRKQWKCTQATSQEQCMFWIEQGWADIMTTREGQVYSANTTFNLKPIAYETTINDQQPEIQILKHYQNVTFALKSSRLVNPNTFSELRDKTTCHAGIDMPDFDMPASFADPVCNLIKEGVIPVTGNYIESFSDFVQESCVPGVLNMTYNKNGTYPLSLVTLCEDQQYKYSGIKGALSCLESGKGQVTFVDQKVIKKIMSDPNVRDNFQVVCRDESRPLDEEIFTDVTCHVGHTARPTIFINKNNTQQKETDIKTLVVKMMELYGNTDRDVNFNIFDSSVYDCGKCQMTGKPLNKNLIFLEESNTMKIVDDSKVYAGEVYAAYNVCSKLVPKPRAKICVTNVTEYEACRRFKGIAENIPEVKKVAWGCVLANSSIECMQAVHNNTADLFKANPMETFIAGKEFLLDPLMSVHRNDSVTMNHTYTRTLAVIKRSSLAKFPGLLSVPEGQPKYIKDLWKLKICSAGLKNFSAFHSPIGYLLANGTIPRIGSVFESVNRYFQATCVPEIEPETWRLDSDLLLGREMNWGFSSLNMYNFTGQEWLLWNTPATWNFLTYNRKVSTGLDIKKLIELKKQNLTSHIFNQNLSSPRNVELLDDLVGVEGISDLVKGVQDTIGPEGKQKMNMLRDRLSNSFPNFEAVRTLSDKVDIVNKMKDARQQRLQNKDHPFGNVIQETFQGHLMVDVFSKLLELRSDKISTLEEIISHVKTIPYLTDFKDVEITTVLKHPAIMSYVEIYFPRLSQTFVEPFDNVELREREFNRYTNPLWLSPKVHTYLDLVKNHQTEITKTCNSNLPLNFKGYEGALRCLKSGVADLASSTSRPSVTRTLRDTDLSTGWVHLQRPPPSLPQRQVVEIDVNMDIAKVCNFGEVMNPVLVTAYNTSGSWRWNITKALMIAHQSVALPALFGEGTVMGKDYDMLLPIAPLNQSYQPFLGSKPLRSMEAIVKASSYDWFKDQTGICYGETYTNIVKQRNETCQAIVKDVTCVGTPRMKKISVGRFGAKQFKMIKMCSRPSKFVRKMADFQCDNGFGYLKPVITAVACECMLCEEMIEYNTSFTEDNMWSDVSNKYVLTGEQDIYRQIPIWGNNSYFYDHTLNKNFELGNHSIIVEHVQTVVVERPSPGILSQVNSEVDPEVQVQMDSASLTKTCETVWNGQSWLPERFQGYKTSGSCVVPETGANAKSRVDRFRQIMQRKQQLVDHHH
modifications: carbohydrate 5-6% (orcein assay) or 7-8% (anthrone test), several per cent glucosamine; sites not stated
Regarding B1, the “stoichiometry N” value came to 8 in “AUC [10]” and 2 in “AUC [11]”.
